Twelve molecules from patent US20220195070A1 can be followed below.

Assay [1] concerns the target Anti-hC5 Antibody. Put plainly: sandwich ELISA: SKA antibody coated, Anti-hC5 Antibody in pooled human serum, then human C5, mouse anti-hC5, anti-mouse-POD; incubation 14 min; blank OD 0.028. For orientation: In an ELISA, binding on a coated surface is turned into a signal by an enzyme label.
The target of assay [2] is Anti-hC5 Antibody. Put plainly: sandwich ELISA: SKA antibody coated, Anti-hC5 Antibody in pooled human serum; OD spiked / OD blank.
Sequence of Anti-hC5 Antibody (constant, as listed by the source limits assumed): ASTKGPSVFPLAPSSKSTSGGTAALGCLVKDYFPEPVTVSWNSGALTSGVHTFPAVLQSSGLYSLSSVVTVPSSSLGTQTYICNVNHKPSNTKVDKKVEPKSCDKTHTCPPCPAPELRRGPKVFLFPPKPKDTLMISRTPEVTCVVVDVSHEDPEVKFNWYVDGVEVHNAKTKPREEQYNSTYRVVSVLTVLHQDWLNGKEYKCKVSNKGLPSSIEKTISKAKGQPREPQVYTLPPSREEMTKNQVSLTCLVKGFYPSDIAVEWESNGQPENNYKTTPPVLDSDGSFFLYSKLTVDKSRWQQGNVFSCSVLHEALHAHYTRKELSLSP
Assay [3] has as its target Anti-hC5 Antibody. Put plainly: SPR (Biacore T200), 25 C, pH 7.4; SKA antibody captured by anti-rabbit IgG, Anti-hC5 Antibody injected 0-800 nM. (In general: Surface plasmon resonance follows binding to a sensor surface in real time, without labels.)
Assay [4] addresses Anti-hC5 Antibody. Put plainly: sandwich ELISA: SKA antibody coated, Anti-hC5 Antibody in pooled human serum, then human C5, mouse anti-hC5, anti-mouse-POD; incubation 9 min; blank OD 0.027.
For assay [5], the target named is Anti-hC5 Antibody. Put plainly: sandwich ELISA: SKA antibody coated, Anti-hC5 Antibody in pooled human serum, then human C5, mouse anti-hC5, anti-mouse-POD; incubation 8 min; blank OD 0.026.
The target in assay [6] is Anti-hC5 Antibody. Put plainly: sandwich ELISA: SKA antibody coated, Anti-hC5 Antibody in pooled human serum, then human C5, mouse anti-hC5, anti-mouse-POD; incubation 16 min; blank OD 0.030.
The target of assay [7] is Anti-hC5 Antibody. Put plainly: sandwich ELISA: SKA antibody coated, Anti-hC5 Antibody in pooled human serum, then human C5, mouse anti-hC5, anti-mouse-POD; incubation 8 min; blank OD 0.027.
Assay [8] addresses Anti-hC5 Antibody. Put plainly: SPR (Biacore T200), 25 C, pH 7.4; SKA antibody captured by anti-rabbit IgG, Anti-hC5 Antibody injected 0-800 nM; *reliability might be low.
In assay [9] the target is Anti-hC5 Antibody. Put plainly: sandwich ELISA: SKA antibody coated, Anti-hC5 Antibody in pooled human serum, then human C5, mouse anti-hC5, anti-mouse-POD; incubation 18 min; blank OD 0.032.
In assay [10] the target is Anti-hC5 Antibody. Put plainly: sandwich ELISA: SKA antibody coated, Anti-hC5 Antibody in pooled human serum, then human C5, mouse anti-hC5, anti-mouse-POD; incubation 11 min; blank OD 0.027.
Assay [11] has as its target Anti-hC5 Antibody. Put plainly: sandwich ELISA: SKA antibody coated, Anti-hC5 Antibody in pooled human serum, then human C5, mouse anti-hC5, anti-mouse-POD; incubation 9 min; blank OD 0.028.
Assay [12] deals with Anti-hC5 Antibody. Put plainly: sandwich ELISA: SKA antibody coated, Anti-hC5 Antibody in pooled human serum, then human C5, mouse anti-hC5, anti-mouse-POD; incubation 19 min; blank OD 0.030.
Assay [13] concerns the target Anti-hC5 Antibody. Put plainly: sandwich ELISA: SKA antibody coated, Anti-hC5 Antibody in pooled human serum, then human C5, mouse anti-hC5, anti-mouse-POD; incubation 21 min; blank OD 0.032.

Broadly, the Kd is the constant that tells how readily two partners part at equilibrium. Read a high Kd as weaker binding. What is called koff is the first-order rate constant of dissociation. A lower koff goes with slow dissociation. For orientation: kon means a measure of how fast the partners come together. A lower kon goes with slower complex formation.

B1: SKA0127 (antibody, V domains shown)
VH: QSVEESGGRLVTPGTPLTLTCTVSGIDLSTYAMTWVRQAPGKGLEYIGYINGGGSAYYASWVNGRFTISKTSTTADLKITSPTTEDTATYFCARGPVGSYHRIWGPGTLVTVSS
VL: ALVMTQTPSSVSEPVGGTVTINCRASEDIESYLAWYQQKPGQPPKLLIYATSNLETGVPSRFKGSGSGTDYTLTISGVQCADAATYYCQGYYELSSIDNNAFGGGTEVVVKG
Molecule B1 showed an OD (Anti-hC5 Antibody spiked) with Anti-hC5 Antibody [1] of 0.078 OD. For the same molecule, in the assay with Anti-hC5 Antibody [2], the Signal to noise ratio came to 2.8. In addition, in the assay with Anti-hC5 Antibody [3], the Kd came to 3.54 nM, the koff came out at 0.000254 s⁻¹ and the kon worked out at 71800 M⁻¹ s⁻¹.

B2: SKA0117 (antibody, V domains shown)
VH: QSLEESGGDLVKPEGSLTLTCTASGFSFSSSHYMCWVRQAPGKGLEWIACIYAGSSDNTYYASWAKGRFTISKTSSTTVTLQMTSLTAADTATYFCARDTYGYVGYASAGGFFNLWGPGTLVTVSS
VL: ALVMTQTPASVSAAVGGTVTINCQASHNIYSVLAWYQQKPGQRPRLLIYGASNLESGVPSRFKGSGSGTEYTLTISDLECDDAATYYCQSAYYSSSTGDNAFGGGTEVVVKG
B2: the OD (Anti-hC5 Antibody spiked) with Anti-hC5 Antibody [4] turned out to be 0.112 OD. Moreover, the Signal to noise ratio with Anti-hC5 Antibody [2] came out at 4.1.

B3: SKA0141 (antibody, V domains shown)
VH: QSLEESGGDLVKPGASLTLTCTASGFSFSSSYYMCWVRQAPGKGLEWIACIYAGSSGSTYYASWAKGRFTISKTSSTTVTLQMTSLTAADTATYFCARDGDENMLVGGYFNLWGPGTLVTVSS
VL: ALVMTQTPSSVSAAVGGTVTINCQASHNIYSNLAWYQQKPGQRPKLLIYGASNLESGVPSRFKGSGSGTEYTLTISDLECDDAATYYCQSAYYSSNAGYNAFGGGTEVVVKG
In the assay with Anti-hC5 Antibody [5], B3 had an OD (Anti-hC5 Antibody spiked) of 0.109 OD. Further, the Signal to noise ratio with Anti-hC5 Antibody [2] is 4.2.

B4: SKA0028 (antibody, V domains shown)
VH: QSVEESGGRLVTPGTPLTLTCTASGFTISSYHMSWVRQAPGKGLEWIGIIHGSGNMWYASWAKGRFTISRTSTTVDLEITSPTTEDTATYFCARIRFWASSNYYYFYLWGQGTLVTVSS
VL: ALVMTQTPASVSEPVGGTVTINCQASQNIYSNLAWYQQKPGQRPRLLIYGASNLESGVPSRFRGSGSGTEFTLTISDLECADAATYYCQSAYWGNNNDGAFGGGTEVVVKG
For the molecule B4, the Signal to noise ratio with Anti-hC5 Antibody [2] amounted to 3. The same molecule returned an OD (Anti-hC5 Antibody spiked) with Anti-hC5 Antibody [6] of 0.091 OD.

B5: SKA0171 (antibody, V domains shown)
VH: QSLEESGGGLVQPEGSLTLSCTASGFSFSSSYYMCWVRQAPGKGLEWIACIYGGNSVITYYANWAKGRFTISETSSTTVTLQMTSLTAADTATYFCAREVHYDYLYTTYGYANLWGPGTLVTVSS
VL: AIKMTQTPASVSAVVGGTVTINCQASETIYSGLAWYQQKPGQPPKLLIYDTANLETGVSSRFKGSGSGTEYTLTISDLECDDAATYFCLYAYYSGGSADNAFGGGTEVVVKG
Turning to B5, the OD (Anti-hC5 Antibody spiked) with Anti-hC5 Antibody [7] is 0.106 OD. In the assay with Anti-hC5 Antibody [2], the Signal to noise ratio was found to be 4.

B6: SKA0016 (antibody, V domains shown)
VH: QEQLVESGGGLVQPEGSLTLTCTASGFSFSSSDYMCWVRQAPGKGLEWIACIYIGSNGDTFYASWAKGRFTISKTSSTTVTLQMTSLTAADTATYFCARDSRRADDYGTRLDLWGQGTLVTVSS
VL: DIVMTQTPSSVSAAVGGTVTIKCQASQNIYRNLAWYQQKPGQPPKLLIYQASKLESGVPSRFKGSGSGTEFTLTISDLDCDDAASYYCQSISYISSGDTFFWAFGGGTEVVVKG
Consider B6, for which the Signal to noise ratio with Anti-hC5 Antibody [2] came to 2.5. This molecule showed an OD (Anti-hC5 Antibody spiked) in the assay with Anti-hC5 Antibody [6] of 0.076 OD. Further, in the assay with Anti-hC5 Antibody [8], the Kd worked out at 0.0191 nM and the koff was found to be 5.9e-07 s⁻¹. Besides, the kon with Anti-hC5 Antibody [3] came to 30900 M⁻¹ s⁻¹.

B7: SKA0001 (antibody, V domains shown)
VH: QSVEESGGRLVTPGTPLTLTCTVSGFSLSYYAMNWVRQAPGKGLEWIGIIGISGGTYYASWAKGRFTISKSSSTTVDLKMTSPTTEDTATYFCARGGSAWGDLWGQGTLVTVSS
VL: DIVMTQTPSSVSAAVGGTVTINCQASQSISRLLAWYQQKPGQPPKVLMHDASDLASGVPSRFKGSGSGTEYTLTISDLECADAATYYCQSYYWGSSGDIGYPFGGGTEVVVKG
Consider B7, for which the Signal to noise ratio with Anti-hC5 Antibody [2] came out at 2.5. Also, the OD (Anti-hC5 Antibody spiked) with Anti-hC5 Antibody [9] was 0.079 OD.

B8: SKA0052 (antibody, V domains shown)
VH: QSLEESGGDLVKSGASLTLTCTASGFSFSSSYYMCWVRQAPGKGLEWIACIYTGSNGDTYYASWANGRFTISKASSTTVTLQMTSLTAADTATYFCARYTYDDDGDYTSFNLWGPGTLVTVSS
VL: ALVMTQTPSSVSADVGGTVTINCQASQNIYRNLAWYQQKPGQRPKLLIYGASNLEPGVPSRFKGSGSGTEFTLTISDLECDDAATYYCQSVGYSGSVDTFFYAFGGGTEVVVKG
Regarding B8, in the assay with Anti-hC5 Antibody [10], the OD (Anti-hC5 Antibody spiked) was 0.098 OD. The Signal to noise ratio with Anti-hC5 Antibody [2] was 3.7. In the assay with Anti-hC5 Antibody [3], the Kd turned out to be 1.81 nM, the koff stood at 0.000196 s⁻¹ and the kon was found to be 108000 M⁻¹ s⁻¹.

B9: SKA0009 (antibody, V domains shown)
VH: QSVEESGGRLVTPGTSLTLTCTVSGIDLSSYGMGWVRQAPGMGLEYIGIIYAAGRTYYASWVKGRFIISKTSTTVDLEMTSLTTEDTATYFCARHGSWYAGMDLWGPGTLVTVSS
VL: AIEMTQTPSPVSAAVGGTVSINCQASEDIENYFAWYQQKPGQPPKLLIYDASELASGVPSRFSGSGSGTDFTLTISGVQCDDAATYYCQHADYAASSENTFGGGTEVVVKG
As to B9, the Signal to noise ratio with Anti-hC5 Antibody [2] came out at 3.2. In the assay with Anti-hC5 Antibody [8], this molecule showed an equilibrium dissociation constant (Kd) of 0.0184 nM and a dissociation rate constant (koff) of 1.41e-06 s⁻¹. The OD (Anti-hC5 Antibody spiked) in the assay with Anti-hC5 Antibody [11] came out at 0.089 OD. For the same molecule, the kon in the assay with Anti-hC5 Antibody [3] was 76900 M⁻¹ s⁻¹.

B10: SKA0027 (antibody, V domains shown)
VH: QEQLVESGGGLVQPEGSLTLTCTASGFSFSSSDYMCWVRQAPGKGLEWIGCIYTGSGSTYYASWAKGRFTISKTSSTTVTLQMTSLTAADTATFFCARRGDSYSNYSFKLWGPGTLVTVSS
VL: AFELTQTPASVEAAVGGTVTIKCQASQNIYSNLAWYQQKPGQPPKLLIYTASSLASGVSSRFKGSGSGTEFTLTISDLECDDAATYYCQCTYINNGYGNTFGGGTEVVVKG
The molecule B10 gave an OD (Anti-hC5 Antibody spiked) with Anti-hC5 Antibody [4] of 0.093 OD. Also, the Signal to noise ratio with Anti-hC5 Antibody [2] turned out to be 3.4.

B11: SKA0054 (antibody, V domains shown)
VH: QSLEESGGGLVQPEGSLTLTCTASGFSFSSSFWICWVRQAPGKGLEWLACIDAGSSDNTYYANWAKGRFTISKTSSTTVTLQMTSLTDADTATYFCARDRDAAGDAGYGYATSFNLWGPGTLVTVSS
VL: AIDMTQTPSSVSAAVGGTVTINCQASESIYSNLAWYQQKPGQRPKLLIYLASTLASGVPSRFKGSGSGTEFTLTISDLECADAATYYCQSVYYDSRGDTFFWAFGGGTEVVVKG
As to B11, in the assay with Anti-hC5 Antibody [2], the Signal to noise ratio stood at 2.6. In the assay with Anti-hC5 Antibody [12], the OD (Anti-hC5 Antibody spiked) worked out at 0.077 OD. In the assay with Anti-hC5 Antibody [3], this molecule showed an equilibrium dissociation constant (Kd) of 7.22 nM, an off-rate constant (koff) of 0.000197 s⁻¹ and an on-rate constant (kon) of 27300 M⁻¹ s⁻¹.

B12: SKA0046 (antibody, V domains shown)
VH: QEQLVESGGGLVQPEGSLTLTCTASGFSLSSSNYMWWVRQAPGKGLEWIACIHASSSGDTYYANWAKGRFTISKTSSTTVTLQMTSLTAADTATYFCARGGYIYGDGGYNGVAGFSLWGPGTLVTVSS
VL: DVVMTQTPASVSEPVGGTVTIKCQASETIGNALAWYQQKPGQRPKLLIYGASNLESGVPSRFKGSGSGTEFTLTISDVQCDDAATYYCQSIYYSSSADTFFFPFGGGTEVVVKG
As to B12, the Signal to noise ratio with Anti-hC5 Antibody [2] is 2.3. Moreover, the Kd with Anti-hC5 Antibody [8] was 0.585 nM. The molecule also came in with an OD (Anti-hC5 Antibody spiked) in the assay with Anti-hC5 Antibody [13] of 0.075 OD. In addition, in the assay with Anti-hC5 Antibody [3], the koff was determined as 5.17e-05 s⁻¹ and the association rate constant (kon) was 88500 M⁻¹ s⁻¹.
